B1: Gamma-crystallin S, residues 96 to 176; numbered along this chain, P22914 (parent)
chain: IQIFEKGDFSGQMYETTEDCPSIMEQFHMREIHSCKVLEGVWIFYELPNYRGRQYLLDKKEYRKPIDWGAASPAVQSFRRI

Variants of: B1
Test: abundance fitness (aPCA) (normalised: wild type 0, dead -1); higher = more abundant; growth selection in yeast, the domain comes from the species named
Conditions: Homo sapiens

Abundance fitness, by site and new letter:
E25: W -0.434
Q26: A -0.018, C -0.123, D 0.073, E 0.079, F -0.033, G 0.044, I -0.065, K -0.079, M -0.04, P -0.021, R 0.009, S -0.035, T -0.047, V 0.009, W 0, Y 0.082
F27: A 0.033, C -0.094, D -0.156, G 0.017, H 0.101, I 0.104, K -0.018, L 0.015, M 0.014, N -0.141, P -0.001, Q 0.021, R 0.02, S 0.006, V 0.014, W 0.03, Y -0.011
H28: A 0.045, C 0.031, D 0.027, E 0.006, F 0.332, G 0.048, I 0.079, K 0.07, L 0.035, M -0.05, N 0.009, P 0.137, Q 0.037, R -0.047, S 0.042, T 0.036, V -0.011, W 0.05, Y 0.035
M29: A 0.048, C 0.132, D 0.034, E 0.109, F 0.036, G 0.053, H 0.124, I -0.015, K -0.006, L -0.084, N 0.226, P 0.058, Q 0.048, S 0.063, T 0.109, V 0.034, W 0.027, Y 0.025
R30: A 0.061, C 0.009, D 0.009, E 0.066, F 0.005, G 0, H 0.026, I -0.099, K 0.055, L -0.031, M 0.047, N 0.044, P 0, Q 0.11, S -0.07, T 0.011, V -0.144, W 0.105, Y -0.02
E31: A 0.066, C -0.13, D 0.138, F 0.041, G 0.015, H 0.069, I 0.05, K -0.034, L 0.056, M -0.039, N -0.008, P -0.056, Q 0.02, S -0.034, T 0.106, V 0.072, W 0.084, Y 0.116
I32: C 0.015, E -0.348, F 0.09, K -0.755, L 0.025, M -0.001, N -0.223, P 0.051, Q -0.809, R -1.01, S -0.087, T -0.027, V -0.029, W -0.193
H33: A -0.047, C 0.035, D 0.077, E 0.054, F 0.093, G 0.012, I -0.002, K -0.12, L -0.021, M 0.027, N -0.01, P 0.057, Q -0.023, R -0.047, S 0.03, T 0.06, V -0.013, W 0.062, Y 0.02
S34: A -0.004, C -0.047, D -0.898, E -0.772, F -1.06, G 0.06, H -0.641, I -0.844, K -0.954, L -0.967, M -0.779, N -0.434, P -1.08, Q -0.485, R -0.623, T -0.601, Y -0.646
C35: A -0.027, E -0.952, F 0.133, G 0.048, H -0.769, I -0.039, K -1.01, L 0.102, M 0.111, N -0.529, P -0.788, Q -0.803, R -0.987, S 0.052, T 0.074, V 0.021, W -0.006, Y -0.217
K36: A 0.017, C -0.078, D -0.019, E -0.021, F 0.1, G -0.171, H -0.013, I -0.045, M 0.024, N -0.037, P -1.19, Q -0.002, R 0.022, S 0.015, T -0.019, W 0.15, Y 0.068
V37: A 0.081, C 0.075, D -0.166, G -0.075, I -0.142, K 0.027, L 0.023, M 0.049, N 0.087, Q -0.105, R 0.042, T 0.004, Y -0.769
L38: A 0.032, C -0.067, E -0.004, F -0.017, G 0.02, H 0.043, I -0.15, K -0.016, M -0.046, P 0.1, Q -0.072, R 0.004, S -0.014, T 0.012, W -0.024, Y -0.079
E39: A 0.059, C -0.039, D -0.028, F -0.025, H -0.1, K 0, M -0.014, N 0.079, P -0.227, Q -0.03, R 0.054, S 0.035, T -0.012, V 0.061, W -0.06, Y -0.045
G40: A -0.051, C -0.158, D -0.012, F -0.261, H -0.252, I -0.759, K -0.337, L -0.739, M -0.464, N -0.14, P -0.028, R -0.322, S -0.051, T -0.251, V -1.06, W -0.312, Y -0.137
V41: A 0.063, C -0.112, D -0.01, F -0.001, G 0.105, I -0.101, K 0.052, L 0.023, M 0.041, P -0.051, Q 0.055, R 0.047, S -0.026, T 0.096, W -0.132, Y -0.162
W42: A -0.157, C -0.156, D -1.06, E -0.363, F -0.051, G -1.02, H -0.461, K -0.787, L -0.241, M -0.231, N -0.445, P -1.04, Q -0.906, R -0.986, S -0.901, T -0.709, V -0.042, Y 0.046
I43: E 0.117, F 0.008, G 0.028, H -0.162, K -0.123, M 0.074, N 0.007, P -1.1, Q 0.056, R 0.016, S 0.015, V -0.013, W -0.032, Y 0.047
F44: A -0.007, C 0.035, E -0.951, G 0.015, H -0.441, I -0.215, K -0.929, L 0.005, M 0.064, N -0.868, P -1.11, Q -0.602, R -1.02, S -0.272, T -0.195, V 0.009, W -0.141, Y -0.104
Y45: A -0.397, C -0.273, D -1.03, E -0.794, F -0.04, G -0.669, H -0.123, I -1.1, K -0.712, L -0.651, N -0.123, Q -0.888, R -0.841

From the Human Domainome abundance scans (Beltran et al. 2025)
